In patent US20100297101A1 (Scripps Research, published 2010):
Bridges are numbered along the chain shown (N, C = ends). Where no end group is shown, it is not given here.

Tests used:
[1] = biological target: human integrin αIIbβ3 (purified, Enzyme Research Laboratories) (human) (UniProt P08514); experiment: competitive ELISA: inhibition of biotinylated human fibrinogen binding to immobilised human integrin αIIbβ3
[2] = biological target: native integrin αIIbβ3 expressed on the surface of human platelets (human) (UniProt P08514); experiment: cell-based or functional assay
[3] = biological target: T1, human integrin αIIbβ3 (purified, Enzyme Research Laboratories) (human, UniProt P08514 32-1039; P05106 27-788); experiment: competitive ELISA: inhibition of biotinylated fibrinogen binding to immobilised integrin αIIbβ3
T1 construct: Bought protein, coated on ELISA plates or used in solution; also called integrin αIIββ3; GPIIb/IIIa

Chain of Fab abciximab (ReoPro) (VH): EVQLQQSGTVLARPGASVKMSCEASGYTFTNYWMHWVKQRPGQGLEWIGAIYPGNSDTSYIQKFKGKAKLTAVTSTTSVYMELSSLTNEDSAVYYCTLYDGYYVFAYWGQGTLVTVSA
Chain of Fab abciximab (ReoPro) (VL): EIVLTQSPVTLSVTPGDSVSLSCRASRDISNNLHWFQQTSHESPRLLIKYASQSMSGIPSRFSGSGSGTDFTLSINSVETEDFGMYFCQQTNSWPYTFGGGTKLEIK

## Fab abciximab (ReoPro)
[1]
  IC50: 0.09 µM
[2]
  EC50, required concentration for 50% inhibition in a human platelet aggregation assay: 0.045 µM

## VWCRADRRC (disulfide 3-9 (inferred); not fully specified) [cyclic peptide VWCRADRRC]
[3]
  IC50: 1.2 µM

## VWCRADKRC (disulfide 3-9 (inferred)) [cyclic peptide VWCRADKRC]
[3]
  IC50: 4.2 µM

## VVCRADRRC (disulfide 3-9 (inferred), Synthetic nonapeptide (Peptron)) [cyclic peptide VVCRADRRC]
[3]
  IC50: 11 µM
